# Experimental data reported in patent publication US20260001928A1 (CORTERIA PHARMACEUTICALS, priority 2022, published 2026).
# *1 amine or outer side, *2 acyl side, *3 side chain or, on linkers, in order; H or OH if unused. Side-chain parts run from the residue outwards. [ ]: non-standard residue; d: D form. The star is where a group is joined. γGlu = O=C(O)[C@H](CCC(=O)[*:2])N[*:1]; C14 diacid = O=C(O)CCCCCCCCCCCCC(=O)*; C12 diacid = O=C(O)CCCCCCCCCCC(=O)*; Api = NC1(C(=O)O)CCNCC1; Pentanoyl = CCCCC(=O)*; AEEA = NCCOCCOCC(=O)O; Aib = CC(C)(N)C(=O)O
# B1: SEQ ID NO 182 (peptide)
# peptide: Ac-IVLSLD[dV]PIKLK([γGlu-C12 diacid])KILLEQEKQKKQREQAETN[Aib]QILAQV-NH2
# SMILES: CC[C@H](C)[C@H](NC(C)=O)C(=O)N[C@H](C(=O)N[C@@H](CC(C)C)C(=O)N[C@@H](CO)C(=O)N[C@@H](CC(C)C)C(=O)N[C@@H](CC(=O)O)C(=O)N[C@@H](C(=O)N1CCC[C@H]1C(=O)N[C@H](C(=O)N[C@@H](CCCCN)C(=O)N[C@@H](CC(C)C)C(=O)N[C@@H](CCCCNC(=O)CC[C@H](NC(=O)CCCCCCCCCCC(=O)O)C(=O)O)C(=O)N[C@@H](CCCCN)C(=O)N[C@H](C(=O)N[C@@H](CC(C)C)C(=O)N[C@@H](CC(C)C)C(=O)N[C@@H](CCC(=O)O)C(=O)N[C@@H](CCC(N)=O)C(=O)N[C@@H](CCC(=O)O)C(=O)N[C@@H](CCCCN)C(=O)N[C@@H](CCC(N)=O)C(=O)N[C@@H](CCCCN)C(=O)N[C@@H](CCCCN)C(=O)N[C@@H](CCC(N)=O)C(=O)N[C@@H](CCCNC(=N)N)C(=O)N[C@@H](CCC(=O)O)C(=O)N[C@@H](CCC(N)=O)C(=O)N[C@@H](C)C(=O)N[C@@H](CCC(=O)O)C(=O)N[C@H](C(=O)N[C@@H](CC(N)=O)C(=O)NC(C)(C)C(=O)N[C@@H](CCC(N)=O)C(=O)N[C@H](C(=O)N[C@@H](CC(C)C)C(=O)N[C@@H](C)C(=O)N[C@@H](CCC(N)=O)C(=O)N[C@H](C(N)=O)C(C)C)[C@@H](C)CC)[C@@H](C)O)[C@@H](C)CC)[C@@H](C)CC)C(C)C)C(C)C
# B2: SEQ ID NO 180 (peptide)
# peptide: Pentanoyl-VLSLD[dV]PIKLK([AEEA-AEEA-γGlu-C14 diacid])KILLEQEKQKKQREQAETN[Aib]QILAQV-NH2
# SMILES: CCCCC(=O)N[C@H](C(=O)N[C@@H](CC(C)C)C(=O)N[C@@H](CO)C(=O)N[C@@H](CC(C)C)C(=O)N[C@@H](CC(=O)O)C(=O)N[C@@H](C(=O)N1CCC[C@H]1C(=O)N[C@H](C(=O)N[C@@H](CCCCN)C(=O)N[C@@H](CC(C)C)C(=O)N[C@@H](CCCCNC(=O)COCCOCCNC(=O)COCCOCCNC(=O)CC[C@H](NC(=O)CCCCCCCCCCCCC(=O)O)C(=O)O)C(=O)N[C@@H](CCCCN)C(=O)N[C@H](C(=O)N[C@@H](CC(C)C)C(=O)N[C@@H](CC(C)C)C(=O)N[C@@H](CCC(=O)O)C(=O)N[C@@H](CCC(N)=O)C(=O)N[C@@H](CCC(=O)O)C(=O)N[C@@H](CCCCN)C(=O)N[C@@H](CCC(N)=O)C(=O)N[C@@H](CCCCN)C(=O)N[C@@H](CCCCN)C(=O)N[C@@H](CCC(N)=O)C(=O)N[C@@H](CCCNC(=N)N)C(=O)N[C@@H](CCC(=O)O)C(=O)N[C@@H](CCC(N)=O)C(=O)N[C@@H](C)C(=O)N[C@@H](CCC(=O)O)C(=O)N[C@H](C(=O)N[C@@H](CC(N)=O)C(=O)NC(C)(C)C(=O)N[C@@H](CCC(N)=O)C(=O)N[C@H](C(=O)N[C@@H](CC(C)C)C(=O)N[C@@H](C)C(=O)N[C@@H](CCC(N)=O)C(=O)N[C@H](C(N)=O)C(C)C)[C@@H](C)CC)[C@@H](C)O)[C@@H](C)CC)[C@@H](C)CC)C(C)C)C(C)C
# B3: SEQ ID NO 183 (peptide)
# peptide: Ac-IVLSLD[dV]PIKLK([γGlu-C12 diacid])KILLEQEKQKKQREQAETN[Api]QILAQV-NH2
# SMILES: CC[C@H](C)[C@H](NC(C)=O)C(=O)N[C@H](C(=O)N[C@@H](CC(C)C)C(=O)N[C@@H](CO)C(=O)N[C@@H](CC(C)C)C(=O)N[C@@H](CC(=O)O)C(=O)N[C@@H](C(=O)N1CCC[C@H]1C(=O)N[C@H](C(=O)N[C@@H](CCCCN)C(=O)N[C@@H](CC(C)C)C(=O)N[C@@H](CCCCNC(=O)CC[C@H](NC(=O)CCCCCCCCCCC(=O)O)C(=O)O)C(=O)N[C@@H](CCCCN)C(=O)N[C@H](C(=O)N[C@@H](CC(C)C)C(=O)N[C@@H](CC(C)C)C(=O)N[C@@H](CCC(=O)O)C(=O)N[C@@H](CCC(N)=O)C(=O)N[C@@H](CCC(=O)O)C(=O)N[C@@H](CCCCN)C(=O)N[C@@H](CCC(N)=O)C(=O)N[C@@H](CCCCN)C(=O)N[C@@H](CCCCN)C(=O)N[C@@H](CCC(N)=O)C(=O)N[C@@H](CCCNC(=N)N)C(=O)N[C@@H](CCC(=O)O)C(=O)N[C@@H](CCC(N)=O)C(=O)N[C@@H](C)C(=O)N[C@@H](CCC(=O)O)C(=O)N[C@H](C(=O)N[C@@H](CC(N)=O)C(=O)NC1(C(=O)N[C@@H](CCC(N)=O)C(=O)N[C@H](C(=O)N[C@@H](CC(C)C)C(=O)N[C@@H](C)C(=O)N[C@@H](CCC(N)=O)C(=O)N[C@H](C(N)=O)C(C)C)[C@@H](C)CC)CCNCC1)[C@@H](C)O)[C@@H](C)CC)[C@@H](C)CC)C(C)C)C(C)C
# B4: SEQ ID NO 181 (peptide)
# peptide: Pentanoyl-VLSLD[dV]PIKLK([AEEA-AEEA-γGlu-γGlu-C14 diacid])KILLEQEKQKKQREQAETN[Aib]QILAQV-NH2
# SMILES: CCCCC(=O)N[C@H](C(=O)N[C@@H](CC(C)C)C(=O)N[C@@H](CO)C(=O)N[C@@H](CC(C)C)C(=O)N[C@@H](CC(=O)O)C(=O)N[C@@H](C(=O)N1CCC[C@H]1C(=O)N[C@H](C(=O)N[C@@H](CCCCN)C(=O)N[C@@H](CC(C)C)C(=O)N[C@@H](CCCCNC(=O)COCCOCCNC(=O)COCCOCCNC(=O)CC[C@H](NC(=O)CC[C@H](NC(=O)CCCCCCCCCCCCC(=O)O)C(=O)O)C(=O)O)C(=O)N[C@@H](CCCCN)C(=O)N[C@H](C(=O)N[C@@H](CC(C)C)C(=O)N[C@@H](CC(C)C)C(=O)N[C@@H](CCC(=O)O)C(=O)N[C@@H](CCC(N)=O)C(=O)N[C@@H](CCC(=O)O)C(=O)N[C@@H](CCCCN)C(=O)N[C@@H](CCC(N)=O)C(=O)N[C@@H](CCCCN)C(=O)N[C@@H](CCCCN)C(=O)N[C@@H](CCC(N)=O)C(=O)N[C@@H](CCCNC(=N)N)C(=O)N[C@@H](CCC(=O)O)C(=O)N[C@@H](CCC(N)=O)C(=O)N[C@@H](C)C(=O)N[C@@H](CCC(=O)O)C(=O)N[C@H](C(=O)N[C@@H](CC(N)=O)C(=O)NC(C)(C)C(=O)N[C@@H](CCC(N)=O)C(=O)N[C@H](C(=O)N[C@@H](CC(C)C)C(=O)N[C@@H](C)C(=O)N[C@@H](CCC(N)=O)C(=O)N[C@H](C(N)=O)C(C)C)[C@@H](C)CC)[C@@H](C)O)[C@@H](C)CC)[C@@H](C)CC)C(C)C)C(C)C
# Target: T1, CRF1R receptor (UniProt P34998 24-415, limits assumed)
# T1 sequence (looked up): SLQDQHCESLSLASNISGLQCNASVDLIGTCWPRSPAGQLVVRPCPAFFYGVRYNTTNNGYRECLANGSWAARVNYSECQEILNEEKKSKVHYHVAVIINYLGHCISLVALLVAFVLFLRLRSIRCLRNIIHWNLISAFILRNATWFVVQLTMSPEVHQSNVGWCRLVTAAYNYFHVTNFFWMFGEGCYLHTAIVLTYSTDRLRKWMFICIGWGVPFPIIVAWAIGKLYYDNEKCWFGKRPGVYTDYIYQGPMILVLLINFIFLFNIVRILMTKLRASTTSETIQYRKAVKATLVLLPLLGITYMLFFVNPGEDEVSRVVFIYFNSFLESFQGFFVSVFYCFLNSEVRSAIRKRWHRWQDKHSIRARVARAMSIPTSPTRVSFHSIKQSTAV
# Assay: cell-based or functional assay
row,Binder,Emax (% I) [%]
1,B1,1
2,B2,2
3,B3,11
4,B4,9

# Target: human corticotropin-releasing factor 2a (CRF2a receptor) (human), Q13324
# Assay: cell-based or functional assay
# Chain of human corticotropin-releasing factor 2a (CRF2a receptor) (human), Q13324 (Q13324 20-411): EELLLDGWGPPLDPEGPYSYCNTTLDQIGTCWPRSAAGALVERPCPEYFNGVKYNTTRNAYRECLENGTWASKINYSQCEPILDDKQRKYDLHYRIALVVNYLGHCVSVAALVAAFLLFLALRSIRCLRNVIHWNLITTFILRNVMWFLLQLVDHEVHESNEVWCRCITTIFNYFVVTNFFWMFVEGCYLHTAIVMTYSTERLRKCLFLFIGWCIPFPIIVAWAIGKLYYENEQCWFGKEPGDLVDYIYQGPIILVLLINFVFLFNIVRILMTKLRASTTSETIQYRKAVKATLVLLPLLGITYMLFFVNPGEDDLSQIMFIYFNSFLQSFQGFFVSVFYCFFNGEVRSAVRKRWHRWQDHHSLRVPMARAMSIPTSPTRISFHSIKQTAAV
row,Binder,EC50 [nM] (cAMP)
1,B1,1.88
2,B2,10.7
3,B3,2.47
4,B4,24.7
